Laboratory results as given in patent US20200239585A1, “MODULATING THE IMMUNE RESPONSE USING ANTIBODY-DRUG CONJUGATES” (Seattle Genetics, Inc., priority 2017, published 2020).

Tests used:
CD30+ cell lines = settings: cited from earlier work
[1] = system: Hodgkin disease xenograft; settings: SCID mouse xenograft models of Hodgkin disease; cited from earlier work
[2] = system: efflux pump activity of T cell subsets; experiment: rhodamine 123 efflux assay; assay type: cell-based, human; settings: 37° C., 5-hour time-course; FIG. 9D
Method: Sensitivity of cells to many chemotherapies, including MMAE, is influenced by cell-intrinsic drug efflux activity. T cell subsets were evaluated for relative efflux pump activity using a rhodamine 123 efflux assay, following manufacturer's protocol (Chemicon International, Multidrug Resistance Direct Dye Efflux Assay). Enriched T cell populations were loaded with rhodamine 123, incubated in a 37° C. water bath, and were measured for loss of fluorescence over a 5-hour time-course by flow cytometry.

[3] = system: inducible T regulatory cells (iTregs); experiment: iTreg viability on in vitro proliferation with a titration of BV or control IgG-MMAE; assay type: cell-based, human; settings: CD3/CD28 beads, 4-5 days
Method: CD4^+ T cells, isolated from healthy donor PBMC (Astarte Biologics, Bothell Wash.) were used to generate inducible T regulatory cells (iTregs). iTreg differentiation was performed over 1-2 weeks in 6-well tissue culture plates at 37° C. Cells were incubated with CD3/CD28 MACS iBead particles (Miltenyi biotec) at a 1:32 bead/cell ratio, in 2-3 ml of X-VIVO 15 media (Lonza) containing 1L-2 (50 ng/ml), TGFβ (50 ng/ml), and a 1:100 dilution of Lipid-Mixture 1 (Sigma-Aldrich). iTregs were evaluated for FoxP3 and CD30 expression by FACS analysis on an Attune NXT flow cytometer (Life Technologies). Following differentiation, individual donor iTreg populations ranged between 20-80% FoxP3^+ and 40-70% CD30^+.
To evaluate the effect of brentuximab vedotin (BV), and anti-CD30 antibody drug-conjugate on iTreg viability, cells were driven to proliferate in vitro in the presence of BV or control antibody drug-conjugate (IgG-MMAE). Briefly, iTregs were mixed with CD3/CD28 beads (8:1) in RPMI 10% FCS and were distributed at approximately 2.0×10^4 cells/well into a 96-well round-bottom plate. A titration of BV or control IgG-MMAE was added to replicate wells at the concentrations listed, for a final volume of 200 μl, and plates were incubated at 37° C. for 4-5 days. […]

iTregs and CD8+ T cells = experiment: iTreg / CD8+ T cell co-culture suppression assay; assay type: cell-based, human; settings: iTregs:CD8+ T cells 1:2, CD3/CD28 beads, four days, increasing concentrations, two donors; FIG. 2C, 2D
Method: As shown in FIG. 2A and FIG. 2B, increasing the iTreg/CD8^+ T cell ratio, for each donor, further abrogated T cell expansion, confirming suppressive function. To evaluate the effect of BV on iTreg suppression in vitro, co-culture suppression assays were performed. iTregs and CD8^+ T cells were mixed at a 1:2 ratio and combined with CD3/CD28 beads. Replicate wells were treated with a titration of BV or control IgG-MMAE. After four days of culture, viable iTregs and CD8^+ T cells were quantified by flow cytometry.

[4] = system: CD25hi CD127lo T regulatory cells; experiment: activated peripheral blood Treg depletion in vitro; assay type: cell-based, human; settings: four separate donors, CD3/CD28 beads+IL-2, 4-5 days; FIG. 3A
Method: (§1) CD25^hi CD127^lo T regulatory cells or CD8^+ T cells, enriched from peripheral blood derived leukoreduction system (LRS) chambers, were plated with CD3/CD28 beads+IL-2 in round-bottom 96-well tissue culture plates for 4-5 days with a titration of BV or control IgG-MMAE. On the final day of the assay, cells were stained as described above (viability dye and αCD30-PE antibody) and evaluated by flow cytometry.

CD8+ T cells = experiment: activated peripheral blood CD8+ T cell depletion in vitro; assay type: cell-based, human; settings: up to 10 μg/ml of BV, CD3/CD28 beads+IL-2, 4-5 days; FIG. 3B
Method: as §1

[5] = system: human T regulatory cells and CD8+ T cells; experiment: xeno-GVHD model, human T cell subtypes in spleen; assay type: in vivo, NSG mice
[6] = system: peripheral blood T cell subsets; experiment: immunophenotyping of peripheral blood in classical Hodgkin lymphoma patients after BV; assay type: in vivo, human
From the text: The effects of BV on circulating immune cells has not previously been fully elucidated. Sixty-two patients adult patients with classical Hodgkin lymphoma (cHL) that had relapsed or was refractory to frontline chemotherapy were enrolled in a study to evaluate treatment with BV. Patients were excluded if they previously received prior salvage therapy, including salvage radiotherapy, for refractory cHL; BV or any immuno-oncology therapy affecting the PD-1, CTLA4, or CD137 pathways; and/or allogeneic or autologous stem cell transplant (ASCT). BV was administered to the patients at a dose of 1.8 mg/kg on Day 1 and the patients were assessed on Day 8. Immunophenotyping of peripheral blood by flow cytometry was performed by Q2 Solutions on heparinized whole blood. Cell pellets, resulting from plasma banking, were sent to Adaptive for T Cell Receptor β (TCRβ) sequencing. Peripheral blood mononuclear cells were isolated from CPT tubes, frozen, and then analyzed in batches by Caprion using their intracellular cytokine staining platform following peptide stimulation.

cAC10: chimeric IgG1 monoclonal antibody that specifically binds CD30
growth of CD30+ cell lines in vitro (CD30+ cell lines): induces growth arrest | antitumor activity [1]: pronounced antitumor activity

rhodamine 123 [rhodamine-123]
clearance of intracellular rhodamine-123 in CD8+ T cells [2]: rapid clearance | rhodamine-123 efflux in T regulatory cells among T cell subsets [2]: slowest

B1: brentuximab vedotin (conjugate)
VH: QIQLQQSGPEVVKPGASVKISCKASGYTFTDYYITWVKQKPGQGLEWIGWIYPGSGNTKYNEKFKGKATLTVDTSSSTAFMQLSSLTSEDTAVYFCANYGNYWFAYWGQGTQVTVSA
VL: DIVLTQSPASLAVSLGQRATISCKASQSVDFDGDSYMNWYQQKPGQPPKVLIYAASNLESGIPARFSGSGSGTDFTLNIHPVEEEDAATYYCQQSNEDPWTFGGGTKLEIK
numbers of CD30+ iTregs ([3]; FIG. 1B): enhanced depletion | total viable iTreg numbers ([3]; five separate donors, FIG. 1A): dose-dependent reduction | CD8+ T cell accumulation in co-culture (iTregs and CD8+ T cells): augmented | viable iTregs in co-culture (iTregs and CD8+ T cells): selectively reduced | viable CD30+ Treg numbers [4]: dose-dependent reduction | depletion of CD30+ CD8+ T cells (CD8+ T cells): did not deplete | human T regulatory cells in the spleen ([5]; single i.p. 3 mg/kg on day 5, spleens on day 12, compared to PBS alone, FIG. 4A): significantly reduced | splenic CD8+ T cells ([5]; single i.p. 3 mg/kg on day 5, spleens on day 12, FIG. 4B): unaffected by BV treatment with a trend toward increased numbers | CD8+ T cell/Treg ratio in vivo ([5]; single i.p. 3 mg/kg on day 5, spleens on day 12, FIG. 4C): increased | reduction of CD30+ regulatory T cells compared to reduction of other CD30+ T helper cells ([6]; 1.8 mg/kg on Day 1, assessed on Day 8): more significantly | T helper cell subset populations including regulatory T cells ([6]; 1.8 mg/kg on Day 1, assessed on Day 8, peripheral blood, FIG. 5): reduction | number of CD30-expressing regulatory T cells in the peripheral blood ([6]; 1.8 mg/kg on Day 1, assessed on Day 8, FIG. 7): significantly reduced | number of CD30+ T regulatory cells as compared to CD30− T regulatory cells ([6]; single treatment, versus baseline, FIG. 7): reduced
